From the supplement of paper PMC10567573

B1: CDKN1A (parent)
chain: RRQTSMTDFYHSKRRLIFSKRKP

Variants of: B1
Assay: protein stability index of a GFP-peptide fusion (GPS, HEK-293T) (PSI 1-6); higher = more stable
Conditions: c terminus: native
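Further: lentivirally expressed fusions sorted by FACS into six bins by GFP to DsRed ratio, PSI derived from sequencing read proportions per bin multiplied by bin number.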

Point of comparison: RRQTSMTDFYHSKRRLIVSKRKP [F18V], protein stability index 2.3. Against it:
- RRQTSMTDFYHSWRRLIFSKRKP [K13W] — higher, 2.83
- RRQTSMTDFIHSKRRLIFSKRKP [Y10I] — higher, 2.79
- RRQTSMTDFYHSKRRLIFSKCKP [R21C] — higher, 3.54
- NRQTSMTDFYHSKRRLIFSKRKP [R1N] — higher, 2.77
- RRQTSMTDFYHIKRRLIFSKRKP [S12I] — higher, 3.96
- RRQTSMTDFYHSLRRLIFSKRKP [K13L] — higher, 2.51
- RRQFSMTDFYHSKRRLIFSKRKP [T4F] — lower, 2.21
- RRQTSMTDFYHSKRRLIFAKRKP [S19A] — higher, 2.87
- RRQTSMTDFYHSKRRLIFSKRNP [K22N] — higher, 3.35
- RRQTSMTDFYHAKRRLIFSKRKP [S12A] — higher, 2.99
- RRQTSMTDFYHSKRRLPFSKRKP [I17P] — higher, 3.06
- RRQTSMTDFKHSKRRLIFSKRKP [Y10K] — lower, 1.57
- RRQTSMTDFYHSKRRLIFSRRKP [K20R] — lower, 2.21
- RRQTSMTDFYHPKRRLIFSKRKP [S12P] — higher, 2.31
- RRQTSMTDFYHSKRRLIFSKRFP [K22F] — lower, 1.77
- RRQTSPTDFYHSKRRLIFSKRKP [M6P] — lower, 1.34
- RRQTSMTDFYHSKARLIFSKRKP [R14A] — lower, 2.14
- RRQTSMTDFYHSKRRMIFSKRKP [L16M] — lower, 1.54
- RRQTSMSDFYHSKRRLIFSKRKP [T7S] — higher, 2.44
- RRQTSMTDFYHSKRRLMFSKRKP [I17M] — higher, 3.71
- RRQTSMTDHYHSKRRLIFSKRKP [F9H] — higher, 4.22
- RRQTSMTDFYHYKRRLIFSKRKP [S12Y] — lower, 2.15
- RRQTSMTDFWHSKRRLIFSKRKP [Y10W] — higher, 2.66
- RRQTSMTDFPHSKRRLIFSKRKP [Y10P] — lower, 2.22
- RRQTSMTDFYHSKRRLIFSKTKP [R21T] — higher, 3.55
- RRQTSMTDGYHSKRRLIFSKRKP [F9G] — lower, 2.02
- RRQTSMTDFYHSKRRLIFNKRKP [S19N] — lower, 1.85
- RRQTSMNDFYHSKRRLIFSKRKP [T7N] — higher, 3.04
- RRQTKMTDFYHSKRRLIFSKRKP [S5K] — higher, 2.87
- RRQTSITDFYHSKRRLIFSKRKP [M6I] — lower, 2.14
- RRQTLMTDFYHSKRRLIFSKRKP [S5L] — higher, 2.69
- RRQTSMTDFYHSKRRLIFSKRKI [P23I] — higher, 2.74
- RRQTSMTDFYHSDRRLIFSKRKP [K13D] — higher, 2.39
- RRQTSMTDFYHSKRRLIFSKAKP [R21A] — higher, 2.5
- RRQASMTDFYHSKRRLIFSKRKP [T4A] — lower, 2.23
- RRQCSMTDFYHSKRRLIFSKRKP [T4C] — higher, 2.33
- RRQTSMTDFYHSKRRLIPSKRKP [F18P] — higher, 2.82
- RRQTSMTDFYHSHRRLIFSKRKP [K13H] — lower, 1.75
- RRQTSMTDRYHSKRRLIFSKRKP [F9R] — higher, 2.54
- RRQTSMTDFYHSIRRLIFSKRKP [K13I] — higher, 2.36
- RRQTSMTDFYHSKRRLIASKRKP [F18A] — higher, 2.87
- RRQTSKTDFYHSKRRLIFSKRKP [M6K] — higher, 3.44
- RRQTSMTDFYHSKRRLTFSKRKP [I17T] — higher, 2.63
- RRQTSMTDFYHSKRRLIFSMRKP [K20M] — lower, 1.81
- RRQTSMTDFYHSKRRLIFSKRKC [P23C] — higher, 3.15
- RIQTSMTDFYHSKRRLIFSKRKP [R2I] — higher, 2.89
- RRQTSMTDFYESKRRLIFSKRKP [H11E] — higher, 2.37
- RRQTSMEDFYHSKRRLIFSKRKP [T7E] — higher, 3.61
- RRQTSMTDIYHSKRRLIFSKRKP [F9I] — higher, 3.36
- RRQTSMYDFYHSKRRLIFSKRKP [T7Y] — lower, 1.79
- RRQTSMTDFYHSKRRLIFSKNKP [R21N] — higher, 2.79
- RRQTSMTDFYHSKRRLIFSARKP [K20A] — higher, 2.73
- RRKTSMTDFYHSKRRLIFSKRKP [Q3K] — higher, 2.72
- RRQTSMTDFYHSKRRLITSKRKP [F18T] — higher, 2.45
- RRQTSMTDFYHSKRRLIFSFRKP [K20F] — higher, 2.31
- RGQTSMTDFYHSKRRLIFSKRKP [R2G] — higher, 3.55
- RVQTSMTDFYHSKRRLIFSKRKP [R2V] — higher, 2.74
- VRQTSMTDFYHSKRRLIFSKRKP [R1V] — higher, 2.34
- RRQTTMTDFYHSKRRLIFSKRKP [S5T] — higher, 2.38
- RRQTSMTMFYHSKRRLIFSKRKP [D8M] — higher, 2.65
- RRQTSMTDFYHSKRRLIFSKRKV [P23V] — higher, 2.57
- RRQTSMTDFYHSKRRLIFDKRKP [S19D] — lower, 1.43
- RRQTSMTDFYHSKRRLIFSKMKP [R21M] — higher, 3.37
- RRQTSMTDFYHSKRRLIFSKRKG [P23G] — higher, 2.48
- RRQTSMKDFYHSKRRLIFSKRKP [T7K] — lower, 2.19
- RRQTSMTDFYHSCRRLIFSKRKP [K13C] — higher, 3.33
- RRQTSMTDFYHSKRRLICSKRKP [F18C] — lower, 1.69
- RRQPSMTDFYHSKRRLIFSKRKP [T4P] — higher, 2.86
- RRQTSMTDFYHSTRRLIFSKRKP [K13T] — higher, 2.31
- RRQTSMTDFYHSKRRLIFKKRKP [S19K] — lower, 1.91
- RRQTSMTDFYNSKRRLIFSKRKP [H11N] — lower, 1.47
- RRQYSMTDFYHSKRRLIFSKRKP [T4Y] — lower, 2.22
- RRQTSMTDFYHSKRLLIFSKRKP [R15L] — higher, 2.47
- RRQTSMTDFYHSKRRLIFSKPKP [R21P] — higher, 2.73
- IRQTSMTDFYHSKRRLIFSKRKP [R1I] — lower, 1.98
- RRQTSMTDFYHSKRRLIFSYRKP [K20Y] — lower, 1.9
- RRQTSMLDFYHSKRRLIFSKRKP [T7L] — lower, 1.8
- RRQTSMTDFYHSKRRLIFSKIKP [R21I] — higher, 4.52
- RRQTSMRDFYHSKRRLIFSKRKP [T7R] — lower, 1.87
- RRQTSMTDFYHSKRRLIFSPRKP [K20P] — lower, 1.54
- RRQTSMTDFYHSKRRLIFSKRWP [K22W] — higher, 2.91
- RRQTPMTDFYHSKRRLIFSKRKP [S5P] — lower, 1.9
- RRQTSMTDFYHSKRPLIFSKRKP [R15P] — higher, 2.52
- RRQTSMTDFYHSSRRLIFSKRKP [K13S] — higher, 3.39
- FRQTSMTDFYHSKRRLIFSKRKP [R1F] — higher, 3.44
- RRQTSMTDFYHSKRRLIFSKKKP [R21K] — higher, 3.61
- RRQTSMTDFYSSKRRLIFSKRKP [H11S] — higher, 2.69
- RRQTSMTDFYHSKRRLGFSKRKP [I17G] — lower, 1.79
- RRQTAMTDFYHSKRRLIFSKRKP [S5A] — higher, 3
- RRQTSMTDFYHSKRRQIFSKRKP [L16Q] — higher, 2.53
- RRQTFMTDFYHSKRRLIFSKRKP [S5F] — lower, 1.93
- YRQTSMTDFYHSKRRLIFSKRKP [R1Y] — higher, 2.74
- RRQTSDTDFYHSKRRLIFSKRKP [M6D] — lower, 1.96
- RRQTSNTDFYHSKRRLIFSKRKP [M6N] — higher, 3.37
- RRQTSMTDFYHSKERLIFSKRKP [R14E] — higher, 3.86
- RRQTSMTDFYHSKRRLIFSKRTP [K22T] — higher, 2.58
